B1: Dual specificity tyrosine-phosphorylation-regulated kinase mbk-2 (Caenorhabditis elegans), Q9XTF3-2 (parent)
chain: MTLFEPSTSGNRMGYRGSSNSSSGVGSGGSGSLMTQSIGGPNKHLSASHSTLNTASTHDMMHSKIPKSPSNESLSRSHTSSSGGSQGGHNSNSGSNSGFRPEDAVQTFGAKLVPFEKNEIYNYTRVFFVGSHAKKQAGVIGGANNGGYDDENGSYQLVVHDHIAYRYEVLKVIGKGSFGQVIKAFDHKYQQYVALKLVRNEKRFHRQADEEIRILDHLRRQDSDGTHNIIHMLDYFNFRNHKCITFELLSINLYELIKRNKFQGFSLMLVRKFAYSMLLCLDLLQKNRLIHCDLKPENVLLKQQGRSGIKVIDFGSSCFDDQRIYTYIQSRFYRAPEVILGTKYGMPIDMWSLGCILAELLTGYPLLPGEDENDQLALIIELLGMPPPKSLETAKRARTFITSKGYPRYCTATSMPDGSVVLAGARSKRGKMRGPPASRSWSTALKNMGDELFVDFLKRCLDWDPETRMTPAQALKHKWLRRRLPNPPRDGLESMGGLADHEVCFIIF
partner: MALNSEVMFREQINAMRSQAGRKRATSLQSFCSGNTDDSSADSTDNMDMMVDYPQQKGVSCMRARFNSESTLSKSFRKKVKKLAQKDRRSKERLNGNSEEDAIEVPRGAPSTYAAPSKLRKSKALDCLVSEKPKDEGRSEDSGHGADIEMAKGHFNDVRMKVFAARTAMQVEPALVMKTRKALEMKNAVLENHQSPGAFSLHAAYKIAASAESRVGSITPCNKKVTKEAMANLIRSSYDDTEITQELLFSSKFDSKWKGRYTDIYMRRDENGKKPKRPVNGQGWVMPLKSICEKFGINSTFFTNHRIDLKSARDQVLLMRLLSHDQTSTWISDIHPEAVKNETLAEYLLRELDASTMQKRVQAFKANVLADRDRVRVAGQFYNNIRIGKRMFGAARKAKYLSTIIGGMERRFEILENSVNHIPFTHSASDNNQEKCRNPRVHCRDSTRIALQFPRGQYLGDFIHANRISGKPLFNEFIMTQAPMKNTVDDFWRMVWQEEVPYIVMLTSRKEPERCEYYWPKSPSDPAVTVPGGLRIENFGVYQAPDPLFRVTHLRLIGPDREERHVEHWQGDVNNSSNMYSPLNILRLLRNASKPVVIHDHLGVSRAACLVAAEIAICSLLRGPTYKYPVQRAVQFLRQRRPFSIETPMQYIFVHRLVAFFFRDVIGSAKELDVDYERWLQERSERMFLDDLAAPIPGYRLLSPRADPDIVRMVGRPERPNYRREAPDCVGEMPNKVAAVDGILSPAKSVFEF
B2: Dual specificity tyrosine-phosphorylation-regulated kinase mbk-2 (Caenorhabditis elegans), Q9XTF3-2 (parent)
chain: B1 chain
partner: B1 partner with S139R, D157N, S255T, L344M, R444K, A739T

Four variants from IntAct's records for PubMed 19879842 can be followed below.

Residue numbers refer to the chain shown, from its start.

One experiment covers variants of B1. The following applies: with egg5_caeel egg-5, O61789.
For MTLFEPSTSGNRMGYRGSSNSSSGVGSGGSGSLMTQSIGGPNKHLSASHSTLNTASTHDMMHSKIPKSPSNESLSRSHTSSSGGSQGGHNSNSGSNSGFRPEDAVQTFGAKLVPFEKNEIYNYTRVFFVGSHAKKQAGVIGGANNGGYDDENGSYQLVVHDHIAYRYEVLKVIGKGSFGQVIKAFDHKYQQYVALRLVRNEKRFHRQADEEIRILDHLRRQDSDGTHNIIHMLDYFNFRNHKCITFELLSINLYELIKRNKFQGFSLMLVRKFAYSMLLCLDLLQKNRLIHCDLKPENVLLKQQGRSGIKVIDFGSSCFDDQRIYTYIQSRFYRAPEVILGTKYGMPIDMWSLGCILAELLTGYPLLPGEDENDQLALIIELLGMPPPKSLETAKRARTFITSKGYPRYCTATSMPDGSVVLAGARSKRGKMRGPPASRSWSTALKNMGDELFVDFLKRCLDWDPETRMTPAQALKHKWLRRRLPNPPRDGLESMGGLADHEVCFIIF [K196R], the “effect of a mutation on the interaction” value is on record as “decreasing interaction”.

As for MTLFEPSTSGNRMGYRGSSNSSSGVGSGGSGSLMTQSIGGPNKHLSASHSTLNTASTHDMMHSKIPKSPSNESLSRSHTSSSGGSQGGHNSNSGSNSGFRPEDAVQTFGAKLVPFEKNEIYNYTRVFFVGSHAKKQAGVIGGANNGGYDDENGSYQLVVHDHIAYRYEVLKVIGKGSFGQVIKAFDHKYQQYVALKLVRNEKRFHRQADEEIRILDHLRRQDSDGTHNIIHMLDYFNFRNHKCITFELLSINLYELIKRNKFQGFSLMLVRKFAYSMLLCLDLLQKNRLIHCDLKPENVLLKQQGRSGIKVIDFGSSCFDDQRIFTFIQSRFYRAPEVILGTKYGMPIDMWSLGCILAELLTGYPLLPGEDENDQLALIIELLGMPPPKSLETAKRARTFITSKGYPRYCTATSMPDGSVVLAGARSKRGKMRGPPASRSWSTALKNMGDELFVDFLKRCLDWDPETRMTPAQALKHKWLRRRLPNPPRDGLESMGGLADHEVCFIIF [Y325F;Y327F], the “effect of a mutation on the interaction” value is “decreasing interaction”.

Variants of B2 are the subject of the next experiment. As to conditions: with egg4_caeel egg-4, O01767.
For MTLFEPSTSGNRMGYRGSSNSSSGVGSGGSGSLMTQSIGGPNKHLSASHSTLNTASTHDMMHSKIPKSPSNESLSRSHTSSSGGSQGGHNSNSGSNSGFRPEDAVQTFGAKLVPFEKNEIYNYTRVFFVGSHAKKQAGVIGGANNGGYDDENGSYQLVVHDHIAYRYEVLKVIGKGSFGQVIKAFDHKYQQYVALRLVRNEKRFHRQADEEIRILDHLRRQDSDGTHNIIHMLDYFNFRNHKCITFELLSINLYELIKRNKFQGFSLMLVRKFAYSMLLCLDLLQKNRLIHCDLKPENVLLKQQGRSGIKVIDFGSSCFDDQRIYTYIQSRFYRAPEVILGTKYGMPIDMWSLGCILAELLTGYPLLPGEDENDQLALIIELLGMPPPKSLETAKRARTFITSKGYPRYCTATSMPDGSVVLAGARSKRGKMRGPPASRSWSTALKNMGDELFVDFLKRCLDWDPETRMTPAQALKHKWLRRRLPNPPRDGLESMGGLADHEVCFIIF [K196R], the “effect of a mutation on the interaction” value is on record as “decreasing interaction”.

With MTLFEPSTSGNRMGYRGSSNSSSGVGSGGSGSLMTQSIGGPNKHLSASHSTLNTASTHDMMHSKIPKSPSNESLSRSHTSSSGGSQGGHNSNSGSNSGFRPEDAVQTFGAKLVPFEKNEIYNYTRVFFVGSHAKKQAGVIGGANNGGYDDENGSYQLVVHDHIAYRYEVLKVIGKGSFGQVIKAFDHKYQQYVALKLVRNEKRFHRQADEEIRILDHLRRQDSDGTHNIIHMLDYFNFRNHKCITFELLSINLYELIKRNKFQGFSLMLVRKFAYSMLLCLDLLQKNRLIHCDLKPENVLLKQQGRSGIKVIDFGSSCFDDQRIFTFIQSRFYRAPEVILGTKYGMPIDMWSLGCILAELLTGYPLLPGEDENDQLALIIELLGMPPPKSLETAKRARTFITSKGYPRYCTATSMPDGSVVLAGARSKRGKMRGPPASRSWSTALKNMGDELFVDFLKRCLDWDPETRMTPAQALKHKWLRRRLPNPPRDGLESMGGLADHEVCFIIF [Y325F;Y327F], the “effect of a mutation on the interaction” value was “decreasing interaction”.
